Data published in patent US20220387586A1 (Hoffmann-La Roche, published 2022).

Columns and labels:
[1] = biological target: T1, human Fc tagged human Lag3 extra cellular domain (human, UniProt P18627 29-450, biotinylated in the epitope binning, the SA CAP SPR and the FACS competition assay); test: FACS, inhibition of biotinylated Lag3:Fc binding to MHC-II on A375 cells (competitor MHC-II); antibody 10 µg/ml
T1 construct: In-house fusion; also called huLag3-Fc; biotinylated, huFc-tagged huLag3; not shown: human Fc tag
T1 sequence: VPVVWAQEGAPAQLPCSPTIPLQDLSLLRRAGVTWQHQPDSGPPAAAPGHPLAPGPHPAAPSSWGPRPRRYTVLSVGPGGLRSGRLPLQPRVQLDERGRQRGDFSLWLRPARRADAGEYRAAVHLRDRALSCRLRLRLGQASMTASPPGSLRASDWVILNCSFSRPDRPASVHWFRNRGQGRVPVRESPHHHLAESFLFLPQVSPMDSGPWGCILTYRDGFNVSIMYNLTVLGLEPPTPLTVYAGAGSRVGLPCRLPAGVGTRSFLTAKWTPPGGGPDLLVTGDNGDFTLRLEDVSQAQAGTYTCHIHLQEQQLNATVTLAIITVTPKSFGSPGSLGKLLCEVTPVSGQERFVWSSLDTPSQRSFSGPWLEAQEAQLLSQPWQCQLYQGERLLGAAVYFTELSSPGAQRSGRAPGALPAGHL
Method: This analysis was studied in a FACS competition experiment: A375 cells (ATCC, #CRL-1619) were cultured for 2-3 passages in EM Eagle's medium supplemented with EBSS (PAN, cat.no. #P04-00509), 10% FBS, 2 mM L-Glutamin, 1×NEAA and 1× Sodium Pyruvate. All antibodies, were diluted in FACS buffer to a final concentration of 20 μg/ml in 25 μl (in 96well U-bottom plates). […] A375 cells were washed with PBS and adjusted to 3×10⁶ cells/ml in PBS. 100 μl were seeded per well in a 96well V-bottom plate. Plates were centrifuged and supernatant was removed. […] After this, cells were washed with 200 μl FACS buffer. […] After staining, cells were again washed and then transferred in 150 μl FACS buffer (PBS/2% FBS) to a U-bottom plate and analyzed on a FACS Canto-II using an HTS module.
All antibodies were used at 10 μg/ml final concentration.

biotinylated-Lag3 [2] = biological target: T2, biotinylated-Lag3 (UniProt P18627 23-450, limits assumed, biotinylated); test: ELISA, inhibition of biotinylated-Lag3 binding to MHC-II on A375 cells (competitor MHC-II); first of two numbers
T2 construct: Probably a human LAG3 ECD construct; also called Lag3 (MHCII/ELISA)
T2 sequence (looked up): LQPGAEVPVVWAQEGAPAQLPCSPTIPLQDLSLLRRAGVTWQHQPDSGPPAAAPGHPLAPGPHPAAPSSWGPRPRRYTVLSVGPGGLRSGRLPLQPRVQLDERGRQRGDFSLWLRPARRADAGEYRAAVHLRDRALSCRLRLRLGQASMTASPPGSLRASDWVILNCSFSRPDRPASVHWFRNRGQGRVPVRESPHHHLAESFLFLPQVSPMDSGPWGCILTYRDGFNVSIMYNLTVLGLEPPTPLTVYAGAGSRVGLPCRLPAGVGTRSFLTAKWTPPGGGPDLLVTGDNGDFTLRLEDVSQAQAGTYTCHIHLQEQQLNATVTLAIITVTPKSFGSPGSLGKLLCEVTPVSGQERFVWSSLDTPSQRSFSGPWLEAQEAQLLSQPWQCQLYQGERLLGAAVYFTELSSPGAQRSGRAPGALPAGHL

biotinylated-Lag3 [3] = biological target: T2, biotinylated-Lag3; test: ELISA, inhibition of biotinylated-Lag3 binding to MHC-II on A375 cells (competitor MHC-II); second of two numbers
[4] = biological target: T3, LAG3 on cells (recombinant CHO cells expressing Lag3) (human, UniProt P18627 29-525); test: cell-based or functional assay
T3 sequence: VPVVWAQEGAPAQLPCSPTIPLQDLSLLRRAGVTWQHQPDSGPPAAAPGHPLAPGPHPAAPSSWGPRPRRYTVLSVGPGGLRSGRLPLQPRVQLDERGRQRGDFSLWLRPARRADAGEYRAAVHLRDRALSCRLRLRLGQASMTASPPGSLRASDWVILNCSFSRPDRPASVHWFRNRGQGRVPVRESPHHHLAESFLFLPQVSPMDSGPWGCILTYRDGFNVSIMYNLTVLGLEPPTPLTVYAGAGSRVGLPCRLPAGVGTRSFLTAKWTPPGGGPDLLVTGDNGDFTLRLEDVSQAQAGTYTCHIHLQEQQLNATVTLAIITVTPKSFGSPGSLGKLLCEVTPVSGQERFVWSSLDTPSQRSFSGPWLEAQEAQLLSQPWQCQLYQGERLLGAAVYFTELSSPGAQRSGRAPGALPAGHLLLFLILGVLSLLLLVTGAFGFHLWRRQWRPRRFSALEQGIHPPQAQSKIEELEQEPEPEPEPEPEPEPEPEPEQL

cynomolgus LAG3 on cells = biological target: T4, cynomolgus LAG3 on cells (cynomolgus); test: flow cytometry on activated cynomolgus PBMC, 10 µg/ml (only 2nd Ab (hu): 7.62)
T4 construct: whole, on cells; also called cyno-LAG-3; cynoLAG3
Method: Thus, cynomolgus peripheral blood mononuclear cells (PBMC) were prepared from fresh cynomolgus blood and were then activated by CD3/CD28 pre-treatment (1 μg/ml) for 2-3 days. […] After staining, cells were washed two times with PBS/2% FCS and analyzed on a FACS Fortessa (BD).

biotinylated-Lag3 [5] = biological target: T2, biotinylated-Lag3; test: ELISA, inhibition of biotinylated-Lag3 binding to MHC-II on A375 cells (competitor MHC-II)
Method: 25 μl/well of A375 cells (10000 cells/well) were seeded into tissue culture treated 384-well plates (Corning, 3701) and incubated at 37° C. overnight. […] After washing (1×90 μl in PBST) cells were fixed by addition of 30 μl/well glutaraldehyde to a final concentration of 0.05% (Sigma Cat.No: G5882), 10 min at room temperature. After washing (3×90 μl/well with PBST-buffer) 25 μl/well Poly-HRP40-Streptavidin (Fitzgerald, 65R-S104PHRPx) was added in a 1:2000 or 1:8000 dilution and incubated at RT for 1 h. After washing (3×90 μl/well with PBST-buffer) 25 μl/well TMB substrate (Roche, #11835033001) was added and incubated for 2 to 10 min. Measurement took place on a Tecan Safire 2 instrument at 370/492 nm.

[6] = biological target: T5, biotinylated cynoPD1-ECD-Biotin (cynomolgus, UniProt B0LAJ3 25-170, biotinylated; the site and any Avi or His tag are not stated in the passages shown); test: ELISA on coated cynoPD1-ECD-Biotin
T5 construct: also called cyPD1

[7] = biological target: T6, biotinylated PD1-ECD-AviHis (human, UniProt Q15116 25-170, biotinylated); test: ELISA (hu PD1, as described above)
T6 construct: also called huPD1; hu PD1; not shown: Avi-His tag
Method: After washing (3×90 μl/well with PBST-buffer) 25 μl/well goat-anti-human H+L-POD (JIR, JIR109-036-088)/Sheep-anti-mouse-POD (GE Healthcare; NA9310) was added in 1:2000/1:1000 dilution and incubated at RT for 1 h on shaker. After washing (3×90 μl/well with PBST-buffer) 25 μl/well TMB substrate (Roche Catalogue No. 11835033001) was added and incubated until OD 2-3. Measurement took place at 370/492 nm.

[8] = biological target: T6, biotinylated PD1-ECD-AviHis; test: ELISA on coated biotinylated PD1-ECD-AviHis
hu PD1-ECD [9] = biological target: T7, hu PD1-ECD (human, UniProt Q15116 25-170); test: SPR; row head 'Affinity KD 37° C.'; first of two numbers
T7 construct: SPR analyte; also called human PD1-ECD
Method: (§1) The samples were injected for 20 seconds with a concentration of 10 nM and bound to the second flow cell.

[10] = biological target: T8, full-length human PD1 on cells (human, UniProt Q15116 25-288); test: cell ELISA on CHO-K1 cells expressing full-length human PD1
T8 construct: also called CHO-PD1
Method: (to avoid internalization). After washing carefully (1×90 μl/well PBST) cells were fixed by adding 30 μl/well 0.05% Glutaraldehyde (Sigma, Cat.No: G5882, 25%) diluted in 1×PBS-buffer and incubated for 10 min at RT. After washing (3×90 μl/well PBST) 25 μl/well secondary antibody was added for detection: goat-anti-human H+L-POD (JIR, JIR109-036-088)/Sheep-anti-mouse-POD (GE NA9310) followed by 1h incubation at RT on shaker. After washing (3×90 μl/well PBST) 25 μl/well TMB substrate solution (Roche 11835033001) was added and incubated until OD 1.0-2.0. Plates were measured at 370/492 nm.

[11] = biological target: T5, biotinylated cynoPD1-ECD-Biotin; test: ELISA on cyno PD1; row head 'cynomolgus crossreactivity (EC50 [nm])'
hu PD1-ECD [12] = biological target: T7, hu PD1-ECD; test: SPR; row head 'Affinity KD 37° C.'; second of two numbers, equal to the 25 °C value of Table 3
hu PD1-ECD [13] = biological target: T7, hu PD1-ECD; test: SPR (Biacore T200), antibody captured by anti-human IgG, hu PD1-ECD as analyte, 25 °C, 1:1 Langmuir fit
Method: Therefore, an anti-human IgG was immobilized by amine coupling to the surface of a (Biacore) CM5 sensor chip. […] The sensor chip surface was regenerated after each analysis cycle. The equilibrium constant and kinetic rate constants were finally gained by fitting the data to a 1:1 langmuir interaction model.
as §1
Finally the double referenced data was fitted to a 1:1 Langmuir interaction model with the Biacore T200 Evaluation Software.

T8 sequence (Q15116 25-288 limits assumed): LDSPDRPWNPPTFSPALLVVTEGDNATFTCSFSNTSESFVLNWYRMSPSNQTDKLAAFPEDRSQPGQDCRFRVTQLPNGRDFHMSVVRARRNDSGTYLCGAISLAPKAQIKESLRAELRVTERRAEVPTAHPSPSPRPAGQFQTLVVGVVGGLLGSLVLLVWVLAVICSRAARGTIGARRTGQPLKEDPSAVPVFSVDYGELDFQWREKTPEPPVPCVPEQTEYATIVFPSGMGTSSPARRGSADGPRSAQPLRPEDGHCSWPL
T6 sequence (Q15116 25-170): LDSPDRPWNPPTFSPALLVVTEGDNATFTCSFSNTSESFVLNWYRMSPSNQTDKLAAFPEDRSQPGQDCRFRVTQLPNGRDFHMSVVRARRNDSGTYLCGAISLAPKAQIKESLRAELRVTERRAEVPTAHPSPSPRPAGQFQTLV
T7 sequence (Q15116 25-170 limits assumed): as the sequence (Q15116 25-170) above
T5 sequence (B0LAJ3 entry or part of it limits assumed): as the sequence (Q15116 25-170) above, with D2E, P10A, V19L, T35A, Q75R, T144A counted along it

B1: Reference MDX26H10 (antibody, V domains shown)
VH: QVQLVESGGGVVQPGRSLRLSCAASGFTFSSYGMHWVRQAPGKGLEWVAVIWYDGSNKYYADSVKGRFTISRDNSKNTLYLQMNSLRAEDTAVYYCAREWAVASWDYGMDVWGQGTTVTVSS
VL: not shown
notes: also called MDX-26H10 (26H10); aLAG3(MDX26H10)
In the case of B1, the “% Inhibition” value [1] is reported as 71.7%, the IC50 (biotinylated-Lag3 [2]) is reported as 0.9 nM and the IC50 (biotinylated-Lag3 [3]) is reported as 0.6 nM.

B2: humanized BAP050 (LAG525) (antibody, V domains shown)
VH: QIQLVQSGPELKKPGETVKISCKASGFTLTNYGMNWVRQTPGKGLKWMGWINTDTGEPTYADDFKGRFAFSLETSASTASLQINNLKNADTATYFCARNPPYYYGTNNAEAMDYWGQGTTVTVSS
VL: DIQMTQTTSSLSASLGDRVTISCSSSQDISNYLNWYQQKPDGTVKVLIYYTSTLHLGVPSRFSGSGSGTDYSLTISNLELEDIATYYCQQYYNLPWTFGQGTKVEIK
notes: also called aLAG3(BAP050)
For B2, the “EC50 [nM] in Jurkat LAG3 + SED + Raji (NFAT luciferase), 2nd assay” value [4] was 22.6 nM, the “% positive cyno cells (PBLs) after CD3/CD28 activation” value (cynomolgus LAG3 on cells) was 50.7% and the IC50 (biotinylated-Lag3 [5]) was 1 nM.

B3: PD1-0103-0312 (antibody, human IgG1, V domains shown)
VH: EVQLLESGGGLVQPGGSLRLSCAASGFSFSSYTMSWVRQAPGKGLEWVATISGGGRDIYYPDSVKGRFTISRDNSKNTLYLQMNSLRAEDTAVYYCVLLTGRVYFALDSWGQGTLVTVSS
VL: DIVMTQSPDSLAVSLGERATINCKASESVDTSDNSFIHWYQQKPGQSPKLLIYRSSTLESGVPDRFSGSGSGTDFTLTISSLQAEDVAVYYCQQNYDVPWTFGQGTKVEIK
notes: Humanized; also called PD1-103-0312; PD-0103-0312
For B3, the EC50 [6] was 0.0083 mg/L, the EC50 [7] was 0.1 nM and the EC50 [8] was 0.011 mg/L. It also gave a Kd (hu PD1-ECD [9]) of 1.5 nM, an EC50 [10] of 0.0101 mg/L and an EC50 [11] of 0.08 nM. It also gave a Kd (hu PD1-ECD [12]) of 1.8 nM, a Kd (hu PD1-ECD [13]) of 1.8 nM and a koff (hu PD1-ECD [13]) of 0.000345 s⁻¹. It also gave a kon (hu PD1-ECD [13]) of 195000 M⁻¹ s⁻¹.

B4: PD1-0103-0314 (antibody, human IgG1, V domains shown)
VH: B3 VH
VL: EIVLTQSPATLSLSPGERATLSCRASESVDTSDNSFIHWYQQKPGQSPRLLIYRSSTLESGIPARFSGSGSGTDFTLTISSLEPEDFAVYYCQQNYDVPWTFGQGTKVEIKR
notes: Humanized; also called PD1-103-0314; PD-0103-0314
For B4, the EC50 [6] was 0.0083 mg/L, the EC50 [7] was 0.07 nM and the EC50 [8] was 0.011 mg/L. The Kd (hu PD1-ECD [9]) was 1.6 nM, the EC50 [10] was 0.0077 mg/L and the EC50 [11] was 0.05 nM. The Kd (hu PD1-ECD [12]) was 1.5 nM, the Kd (hu PD1-ECD [13]) was 1.5 nM and the koff (hu PD1-ECD [13]) was 0.000279 s⁻¹. For the same binder, the kon (hu PD1-ECD [13]) was 187000 M⁻¹ s⁻¹.

B5: PD1-0103-0313 (antibody, human IgG1, V domains shown)
VH: B3 VH
VL: DVVMTQSPLSLPVTLGQPASISCRASESVDTSDNSFIHWYQQRPGQSPRLLIYRSSTLESGVPDRFSGSGSGTDFTLKISRVEAEDVGVYYCQQNYDVPWTFGQGTKVEIK
notes: Humanized; also called PD1-103-0313; PD-0103-0313
B5 gave an EC50 [6] of 0.011 mg/L, an EC50 [7] of 0.07 nM and an EC50 [8] of 0.015 mg/L. It also gave a Kd (hu PD1-ECD [9]) of 1.9 nM, an EC50 [10] of 0.0108 mg/L and an EC50 [11] of 0.06 nM. For the same binder, the Kd (hu PD1-ECD [12]) was 2.3 nM, the Kd (hu PD1-ECD [13]) was 2.3 nM and the koff (hu PD1-ECD [13]) was 0.000367 s⁻¹. It also gave a kon (hu PD1-ECD [13]) of 160000 M⁻¹ s⁻¹.
